In the RNAGym collection of RNA variant scans (doi:10.1073/pnas.2313332121):

B1: TPR t1 (parent)
chain: GACCAAUCUGCCCUCAGAGCUCGAGAACAUCUUCGGAUGCAGAGGAGGCAGGCUUCGGUGGCGCGAUAGCGCCAACGUCCUCAACCUCCAAUGCAUCCCACCACAUGAUGAUGCCUGAAGAGCCUUGGUUUUUUG

Variants of: B1
Experiment: polymerase ribozyme fitness, log enrichment relative to wild type (log ratio); higher = more active; in vitro selection for triplet polymerase activity
Method in brief: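 The heterodimeric triplet polymerase ribozyme's subunits were each mutagenized into PCR-built libraries and transcribed. Every library was selected once, in triplicate, by annealing with a biotinylated primer, the partner subunit and triplets, incubating frozen at −7 °C, gel-excising extended constructs, capturing on streptavidin beads and running RT-PCR. Input and output libraries were Illumina-sequenced, with genotypes kept only at ≥10 input reads and ≥1 read per output. Fitness, from inverse-variance-weighted replicate averages, is the base-2 logarithm of genotype enrichment over wild-type enrichment.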

Q: For GACCAAUCUGCCCUCAGAGCUCGAGAACAUCUUCGGAUGCAGAGGAGGCAGGCUUCGGUGGCGCGAUAUCGCCAACGCCCUCAGCCUCCAAUGCAUCCCACCACAUGAUGAUGCCUGAAGAACCUUGAUUUUUUG, which “polymerase ribozyme fitness (log ratio)” value is on record?
A: -3.23

Q: For GACCGAUCUGCACUCAGAGCUCGAGAACAUCUUCGGAAGCAGAGGAGGCAGGCUUCGGUAGCGCGAUAGCGCCAACGUCCUCAACCUCCAAUGCAUCCCACCACAUGAUGAUGCCUGAAGCGCCUUGGUUUUUUU, which “polymerase ribozyme fitness (log ratio)” value is on record?
A: 0.199

Q: For GACCAAUCUGACCUUAGAGCUCGAGAACAUCUUCGGAUGCAGAGGAGUCAGGCUUCGGUGGCGCGAUAGCGCCAACGUCCUCAACCUCCGAUGCAUCCCACCACAUGAUGAAGCCUGAAGAGCCUUGGUUUUUUG, which “polymerase ribozyme fitness (log ratio)” value is on record?
A: -2.88

Q: With GACCAAUCUGCCCUCAGAGCUCGAGAACAUCUUCGGAUGCAGAGGAGGCAGGCUUCGGUGGCGCGAUAGCGCCAACGUCCUCAACCUCCAAUCCAUCCCACCACAUGAUGAUGCCUGAAGAGCCUUGGAUUUUUG as the variant, how does the “polymerase ribozyme fitness (log ratio)” value read?
A: -1.91

Q: For GACCAAUCUGCCCUCAGAGCUCGAGAACAUCUUCGGAUGCAGAGGAGGCAGGCUUCUGUGGCGCGAUAGCGGCAACGUCCUCAACCUCCAAUGCAACCCACCACAUGAUGAUGCCUGAAGAGCCUUGGUUUUUUG, which “polymerase ribozyme fitness (log ratio)” value is on record?
A: -2.83

Q: For GACCAAUCUGCCCUCAGAGCUCGAGAACAUCUUCGGAUGCAGAGGAGGCAGGCUUCGCUGGCGCGAUAGCGCCAACGUCCUCAACCUCCAAUGCAGCCCACCAUAUGAUGAUGCCUGAAGAGCCUUGGUUUUUUG, which “polymerase ribozyme fitness (log ratio)” value is on record?
A: -0.405

Q: Which “polymerase ribozyme fitness (log ratio)” value does the source give for GACCAAUCUGCCCUCAGAGCUCGAGAACAUCUUCGGAUGCAUAGGAGGCAGGCUUCGGUGGCGCGAUAGCGCCAACGUCCUCAACCUCCAAUGCAUCCCACCACAUGAUGAUGCCUGAAGAGCGUUGGUUUUUUC here?
A: 0.643

Q: With GACCAAUCUGCCCUCAGAGCUCGAGAACAUUUUCGGAUGCAGAGGAGGCAGGCUUAGGUGGCGCGAUAGCGCGAACGUCCUCAACCUCCAAUGCAUCCCACCACAAGAUGAUGCCUGAAGAGCAUUGGUUUUUUG as the variant, how does the “polymerase ribozyme fitness (log ratio)” value read?
A: 0.239

Q: Which “polymerase ribozyme fitness (log ratio)” value does the source give for GACCAAUCUGCCCUCAGAGCAGGAGAUCAUCUUCGGAUGCAGAGGAGGCAGGCUUUGGUGGCGCGAUAGCGCCAACGUCCUCAACCUCCAAUGCAUCCCACCACAUGAUGAUGUCUGAAGAGCCUUGGUUUUUUG here?
A: -3.34

Q: With GACCAAUCUGCCCUUAGAGCUCGAGAACAUCUUCGGAUGCAGAGGAGGCAGGCUUCGGUGGCACGAUAGCGCCAACGUCCUCAACCUCCAAUGCAUCCCACCACAUGAUGAUGCCUGAAGAGCCUUGGUUUUUUG as the variant, how does the “polymerase ribozyme fitness (log ratio)” value read?
A: -2.04

Q: Which “polymerase ribozyme fitness (log ratio)” value does the source give for GACCAAUCUGCCCUCAGAGCUCGAGAACAUCUUCGGAUGCAGAGGAGGCAGGCUUCGGUGGCGCGAUAGCGCCAACGUCCUCAACCUUCAAUGCAUCCCACCACAUGAUGAUGCCUGAAGAGCCGUGGUUUUUUG here?
A: -1.39

Q: With GACCAAUCUGCCCUCAGAGCUCGAGAACAUAUUCGGAUGCAGAGGAGGCAGGCUUCGGUGGCGCGAUAGCGCCAACGUCCUCAACCUCCAAUGCUUCCCACCACAUGAUGAUGCCUGAAGAGCCUUGGUUUUUUG as the variant, how does the “polymerase ribozyme fitness (log ratio)” value read?
A: -5.15

Q: With GACCAAUCCGCCCUCAGAGCUCGAGAACAUCUUCGGAUACUGAGGAGGCAGGCUUCGGUGGCGCGAUAGCGCGAACGUCCUCAACCUCCAAUGCAUCCCACCACAUGAUGAUGCCUGAAUAGCCUUGGUUUUUUG as the variant, how does the “polymerase ribozyme fitness (log ratio)” value read?
A: -0.71

Q: With GACCAAUCUGGCCUCAGAGCUCGAGAACAUCUUCGGAUGCAGAGGAGGAAGGCUUCGGUGACGCGAUAGCGCCAACGUCCUCAACCUCCAAUGCAUCCCACCACAUGAUGAUGCCUGAAGAGCCUUGGUUUUUUG as the variant, how does the “polymerase ribozyme fitness (log ratio)” value read?
A: 1.07

Q: Which “polymerase ribozyme fitness (log ratio)” value does the source give for GACCAAUCUGCUCUCAGAGCUCGAGAACAUCUUCAGAUGCAGAGGAGGCAGGCUUCCGUGGCGCGAUAGCGCCAACGUCCUCAACCUUCAAUGCAUCCCACCACAUGAUGAUGCCUGAAGAGCCUUGGUUUUUUG here?
A: -4.97

Q: With GACCAAUCUGCCCUCAGAGCUCGAGAACAUCUUCGGAUGCAGAGGAGCCAGGCUUCGGUGGCGCGAUAUCGCCAACGUCCUCAACCUCCAAUGCAUCCCACCACAUGAUGAUGCCUGAAGAGCCUUGGUUUUUUG as the variant, how does the “polymerase ribozyme fitness (log ratio)” value read?
A: -0.209

Q: For GACCAAUCUGCCUUCAGAGAUCGAGAACAUCUUCGGAGGCAGAGGAGGCAGGCUUCGGUGGCGCGAUAGCGCCAACGUCCUCAACCUCCAAUGCAUCCCACCACAUGAUGAUGCCUGAAGAGCCUUGGUUUUUUG, which “polymerase ribozyme fitness (log ratio)” value is on record?
A: -4.15

Q: For GACCAAACUGCCAUCAGAGCUCGAGAACAUCUUCGGAUGCAGAGGAGGCAGGCUUCGGUGGCGCGAUAGCGCCAACGUCCUCAACCUCCAAUGCAUCCCACCACAUGAUGAUGCCUGAAGAGCCUUGGUUUUUUG, which “polymerase ribozyme fitness (log ratio)” value is on record?
A: -0.751

Q: For GACCAAUCUGCCCUCAGAGCUCGAGAACAUCUUCGGAUGCAGAGGAGGCAGGCUUCGGUGGCGCGAUAGCGCCAACGUCCUCAACCUCCAAUGCAACCCACCACAUGAUGAUGCCGGAAGAGCCUUGGUAUUUUG, which “polymerase ribozyme fitness (log ratio)” value is on record?
A: -3.12

Q: Which “polymerase ribozyme fitness (log ratio)” value does the source give for GACCAAUCUGCCCUCAGAGCUCGAGAACAUCUUCGGAUGCAGAGGAGGCAGGCUUCGGUGGCGCGAUAGCGCCAACAUCCUCAACCUCCAAUGCAUCCCACCACAUGAUGAUGCCAGAAGAGCCUUGGUUUUUUG here?
A: -4.07

Q: For GACCAAUCUGCCCUCAGAGCUCGAGAACAUCUUCGGAUGCAGAGGAGGCAGGCUUCGGUGGCGCGAUAGCGCCAACGUCCUCAACCUCCAAUGCUUCCCACCACAUGAUGAUGCAUGAAGAGCCUUGGUUUUUUG, which “polymerase ribozyme fitness (log ratio)” value is on record?
A: -1.22
